Test results published in patent US20050277575A1, “Therapeutic compositions and methods for treating diseases that involve angiogenesis” (priority 2004, published 2005).

How the values were obtained:
[1] = target: T1, t-PA-mediated plasminogen activation (Homo sapiens, UniProt P00750); test: t-PA-dependent conversion of plasminogen to plasmin, effect of S100A4 (Example 11); assay type: biochemical
T1 construct: purchased Calbiochem
Experimental: Non-active plasminogen can be converted to active protease plasmin by tissue type (t-PA) or urokinase type (u-PA) plasminogen activators. Except for its well-known fibrinolytic activity, plasmin also directly and indirectly, by activation of matrix metalloproteinases (MMPs), participates in the degradation of extracellular matrix that is important for the angiogenesis and tumor invasion. The kinetics of t-PA-mediated plasminogen activation was determined by measuring amidolytic activity of the plasmin generated during plasminogen activation. The reaction was performed with the plasmin substrate Chromozyme PL, tosyl-glycyl-prolyl-lysin-4-nitranilide-acetate (Roche) in the final concentration of 125 μM in a buffer consisting of 50 mM Tris-HCl, pH 7.4, 100 mM NaCl, 5 mM of CaCl2 or 5 mM of EGTA, and 150 nM of [Glu] plasminogen (Calbiochem). The reaction was preincubated with or without 2.5 μM S100A4 at 24 C° for 1 h in 96-well plates. The reaction was initiated by addition of t-PA (Calbiochem) up to 5 nM concentration, final volume 100 μl. Kinetic of substrate hydrolysis was measured at 2 min intervals at 405 nm in Spectramax Plus 384 spectrophotometer (Molecular Devices). Analysis of kinetics curves (Vmax, time to Vmax, and initial slope of kinetic data converted to A405 versus time^2) was performed with the help of Softmax PRO program (Molecular Devices).
Kinetics of plasminogen to plasmin conversion consists of three parts. As shown in FIG. #3 curves 1 and 2 for t-PA, during first 1500 s the reaction is second order that corresponds to conversion of plasminogen to plasmin and consequent cleavage of chromogenic substrate by plasmin. The second part of reaction is linear, for which Vmax can be calculated. It starts after total conversion of plasminogen to plasmin and corresponds to cleavage of chromogenic substrate by plasmin with constant rate. In the third part of reaction, after 2700 s, the reaction is slowing down that corresponds to depletion of chromogenic substrate and finally the reaction reaches a plateau when all substrate is cleaved. As follows from the comparison of curves 1 and 2, t-PA along converted plasminogen to plasmin equally efficiently in the presence or absence of calcium. Neither conversion of plasminogen to plasmin took place in the absence of t-PA no S110A4 induced such conversion by itself, curves 5 and 6. In the presence of S100A4 linear part of reaction starts substantially earlier, which means that total conversion of plasminogen to plasmin was accelerated. Kinetic parameters for t-PA along and for combination of t-PA with S100A4 are represented in Table 4. […] S100A4 accelerated conversion of plasminogen to plasmin in calcium independent manner, curves 3 and 4.

[2] = target: T1, t-PA-mediated plasminogen activation; test: t-PA-mediated plasminogen conversion kinetics with and without S100A4 (Example 12); assay type: biochemical; conditions: for acceleration of plasmin formation (K units): 1 μM S100A4, 100 nM plasminogen
Experimental: The effects of peptide SEQ ID 6, peptide SEQ ID 38 and chimera SEQ ID 39 on acceleration oft-PA-mediated conversion of plasminogen to plasmin induced by S100A4 were measured. The kinetics of t-PA-mediated plasminogen activation were determined by measuring the amidolytic activity of plasmin formed during activation of plasminogen. All the experiments were done in 100 μl volume in 96-well plates in triplicates. Glu-plasminogen (Calbiochem) at the concentration of 100 nM was preincubated at 25° C. for 1 h in the presence or absence of 1 μM recombinant S100A4 in a buffer consisting of 50 mM Tris-HCl, pH 7.4, 100 mM NaCl and 5 mM CaCl2 or 5 mM EGTA. In some experiments, different concentrations of peptides or chimera were preincubated together with proteins. The reaction was initiated by addition of 5 nM t-PA (Calbiochem) and 125 μM chromogenic plasmin substrate, Chromozym PL (Roche). The reactions were monitored at 405 nm for 1.5 h in a SPECTRAmax PLUS^384 microplate spectrophotometer (Molecular Devices) under control of the SOFTmax PRO kinetic program (Molecular Devices). The initial rates of plasmin generation, during the first 10-15 min, were calculated using linear regression analysis of plots of A405 nm versus time 2. The initial rates of plasmin generation were reported in units (K) of A405 nm/min^2×10^3. […] The titration data were analyzed with the four-parameter logistic equation K=(A−D)/(1+(x/C)^B)D. If A, asymptotic minimum, =0, this equation is converted to the Michaelis-Menten equation K=D/(1+(C/[S])^B), where [S] is substrate concentration, D=Vmax, C=Km, and B is the Hill coefficient.
The addition of S100A4 to basal reaction (t-PA plus plasminogen) produced a significant increase in the plasminogen conversion rate. […] The stimulation of the plasminogen conversion by S100A4 was concentration-dependent with the half-maximal effect at 2.4 μM.
The kinetic parameters of t-PA-mediated plasminogen conversion were evaluated in the presence and absence of S100A4 as a function of plasminogen concentrations ranging from 3 nM to 3 μM.

annexin II = target: T2, annexin II (Homo sapiens, UniProt P07355); test: Immunoprecipitation analysis of S100A4-annexin II complex formation; assay type: binding; conditions: monomer and aggregated forms, in Ca2+ or EGTA
T2 construct: GST (N); made in house; host or cells: E. coli ER2507
T2 sequence (P07355 2-339 V98L): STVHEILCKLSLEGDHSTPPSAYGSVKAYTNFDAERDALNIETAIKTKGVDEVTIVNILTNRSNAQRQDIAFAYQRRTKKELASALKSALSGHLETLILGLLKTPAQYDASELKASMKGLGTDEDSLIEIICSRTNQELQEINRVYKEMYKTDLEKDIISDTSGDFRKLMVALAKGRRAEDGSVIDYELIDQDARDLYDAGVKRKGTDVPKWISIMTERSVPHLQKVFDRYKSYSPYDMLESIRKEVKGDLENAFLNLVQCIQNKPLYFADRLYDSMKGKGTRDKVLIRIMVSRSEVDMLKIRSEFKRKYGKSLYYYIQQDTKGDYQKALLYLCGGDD
T2 sequence (P26447 whole entry partner): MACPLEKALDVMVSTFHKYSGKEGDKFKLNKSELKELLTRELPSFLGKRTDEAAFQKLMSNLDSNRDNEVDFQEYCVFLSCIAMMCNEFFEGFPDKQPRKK
Experimental: S100A4 and annexin II proteins, both at the concentrations of 1.5 mg/ml, were pre-incubated overnight at 37° C. in TBS containing either 5 mM CaCl2, or 5 mM EGTA.
The formation of the S100A4-annexin II complex was analyzed by immunoprecipitation with an anti-S100A4 rabbit polyclonal antibody. To this end, the reaction mixture was incubated with the antibody (10 μg/ml) for 1 h at 37° C. and then precipitated by adding protein G-sepharose beads (Affi-Gel; Bio-Rad Laboratories, Hercules, Calif.) and incubating the resulted mixture for 1 h at room temperature. After that the beads were washed 3 times by 500 ul of TBS, boiled in Laemmli sample buffer for 5 min, and then loaded on SDS-PAAG. The proteins were then electro-transferred to a nitrocellulose membrane. The Western blot analysis was performed using anti-Annexin II antibody (BD Pharmingen) used at 1:5000 dilution and sheep anti-mouse antibody conjugated to horseradish peroxidase (Amersham Pharmacia Biotech, Piscataway, N.J.) used at 1:10000 dilution, followed visualization of the Annexin II bands by chemiluminescence.
However, the complex formation is more efficient in the case when the aggregated S100A4 are used. Additionally, the interaction between S100A4 (both monomer and oligomer) and annexin II is more efficient in the absence of Ca2+ (EGTA conditions) compared to that observed in the presence of Ca2+.

[3] = Ca (5 mM CaCl2), with or without 2.5 μM S100A4

T1 sequence (P00750 36-562): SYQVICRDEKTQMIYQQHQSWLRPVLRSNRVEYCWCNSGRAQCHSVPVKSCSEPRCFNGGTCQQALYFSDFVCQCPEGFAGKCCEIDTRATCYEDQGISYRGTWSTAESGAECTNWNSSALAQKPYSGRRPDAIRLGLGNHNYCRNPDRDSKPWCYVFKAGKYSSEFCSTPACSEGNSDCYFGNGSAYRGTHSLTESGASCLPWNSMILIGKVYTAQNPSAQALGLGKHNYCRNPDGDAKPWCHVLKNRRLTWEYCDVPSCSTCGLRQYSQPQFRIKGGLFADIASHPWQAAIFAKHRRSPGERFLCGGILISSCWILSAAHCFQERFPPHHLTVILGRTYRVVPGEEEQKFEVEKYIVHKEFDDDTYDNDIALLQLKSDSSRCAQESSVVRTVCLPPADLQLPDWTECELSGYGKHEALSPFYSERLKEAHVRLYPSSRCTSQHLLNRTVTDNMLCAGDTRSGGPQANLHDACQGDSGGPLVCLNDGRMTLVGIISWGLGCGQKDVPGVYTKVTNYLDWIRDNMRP

For “S100A4: recombinant human S100A4 protein cloned from human placenta total RNA, Ca-binding protein of S100 family”, the “increase of initial rate of plasmin generation” value ([1]; 2.5 μM S100A4 versus t-PA alone) was “more than 3 fold”, the “Slope (initial rate of plasmin generation)” value [1, 3] was 0.250 ΔA405/t^2(min^2) * 1000 and the “Time to Vmax” value [1, 3] was 1440 s. The EC50 ([2]; concentration-dependent stimulation, read-out: half-maximal effect of stimulation of plasminogen conversion) was 2400 nM, the “plasmin generation in the absence of t-PA” value ([2]; no t-PA) was “plasmin generation did not take place” and the Km ([2]; plasminogen 3 nM to 3 μM, read-out: Km of the t-PA-mediated plasminogen conversion) was 0.059 µM. For the same substance, the “acceleration of plasmin formation (K units)” value ([2]; presence of Ca2+) was 15 fold, the “increase in the catalytic efficiency (Vmax/Km) of t-PA” value ([2]; presence of EGTA) was 7.6 fold and the “acceleration of plasmin formation (K units)” value ([2]; presence of EGTA) was 11 fold. The “increase in the catalytic efficiency (Vmax/Km) of t-PA” value ([2]; presence of calcium) was 10 fold and the “complex formation with annexin II” value (annexin II) was “capable of complex formation with annexin II”.
